Measurements reported in the supplement of paper PMC9112550, “Optimization of the antimicrobial peptide Bac7 by deep mutational scanning” (BMC Biology, 2022).
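Further: peptides expressed intracellularly from a pBAD plasmid library in pooled LB shake-flask culture, induced with 0.3% L-arabinose, DNA abundance read by NGS, three biological replicates, DESeq2 with apeglm shrinkage.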

These sequences were tested on Escherichia coli TOP10 (assay: shrunken log2 fold change of peptide-encoding DNA abundance (4.5 h post-induction vs induction); higher = less antimicrobial activity (less host growth inhibition)). Details: time post-induction: 4.5 h; library: site-saturation at positions 5, 18, 19, 20.
With RRIRSRPPRLPRPRPRPNTIPRP the “shrunken log2 fold change” value was -0.511. For RRIRSRPPRLPRPRPRPNWRPRP, the “shrunken log2 fold change” value was 0.266. For RRIRSRPPRLPRPRPRPNYSPRP, the “shrunken log2 fold change” value was -0.401. In the case of RRIRSRPPRLPRPRPRPPAMPRP, the “shrunken log2 fold change” value is reported as 0.344. RRIRSRPPRLPRPRPRPPAQPRP was tested, and the “shrunken log2 fold change” value was 0.922. With RRIRSRPPRLPRPRPRPPCAPRP the “shrunken log2 fold change” value was 0.497. In the case of RRIRSRPPRLPRPRPRPPCYPRP, the “shrunken log2 fold change” value is reported as -0.145. With RRIRSRPPRLPRPRPRPPEMPRP the “shrunken log2 fold change” value was 0.265. In the case of RRIRSRPPRLPRPRPRPPFCPRP, the “shrunken log2 fold change” value is reported as 0.135. RRIRSRPPRLPRPRPRPPFKPRP was tested, and the “shrunken log2 fold change” value was 0.0589. In the case of RRIRSRPPRLPRPRPRPPFSPRP, the “shrunken log2 fold change” value is reported as -0.217. In the case of RRIRSRPPRLPRPRPRPPGNPRP, the “shrunken log2 fold change” value is reported as -0.0179. In the case of RRIRSRPPRLPRPRPRPPISPRP, the “shrunken log2 fold change” value is reported as -0.0261. In the case of RRIRSRPPRLPRPRPRPPIVPRP, the “shrunken log2 fold change” value is reported as -0.0118. With RRIRSRPPRLPRPRPRPPKNPRP the “shrunken log2 fold change” value was 0.223. In the case of RRIRSRPPRLPRPRPRPPNKPRP, the “shrunken log2 fold change” value is reported as -0.0165. In the case of RRIRSRPPRLPRPRPRPPNPPRP, the “shrunken log2 fold change” value is reported as 0.273. With RRIRSRPPRLPRPRPRPPPDPRP the “shrunken log2 fold change” value was 0.848. For RRIRSRPPRLPRPRPRPPPQPRP, the “shrunken log2 fold change” value was 0.835. In the case of RRIRSRPPRLPRPRPRPPRAPRP, the “shrunken log2 fold change” value is reported as 0.567. With RRIRSRPPRLPRPRPRPPRDPRP the “shrunken log2 fold change” value was 1.34. RRIRSRPPRLPRPRPRPPRKPRP was tested, and the “shrunken log2 fold change” value was 0.73. In the case of RRIRSRPPRLPRPRPRPPRLPRP, the “shrunken log2 fold change” value is reported as 0.322. RRIRSRPPRLPRPRPRPPRQPRP was tested, and the “shrunken log2 fold change” value was 0.389. For RRIRSRPPRLPRPRPRPPVRPRP, the “shrunken log2 fold change” value was 0.337. In the case of RRIRSRPPRLPRPRPRPPYTPRP, the “shrunken log2 fold change” value is reported as -0.395. With RRIRSRPPRLPRPRPRPPYYPRP the “shrunken log2 fold change” value was -0.174. RRIRSRPPRLPRPRPRPQCFPRP was tested, and the “shrunken log2 fold change” value was -0.282. For RRIRSRPPRLPRPRPRPQDHPRP, the “shrunken log2 fold change” value was -0.794. With RRIRSRPPRLPRPRPRPQEKPRP the “shrunken log2 fold change” value was -0.393. In the case of RRIRSRPPRLPRPRPRPQETPRP, the “shrunken log2 fold change” value is reported as 0.0728. For RRIRSRPPRLPRPRPRPQEVPRP, the “shrunken log2 fold change” value was -0.0423. In the case of RRIRSRPPRLPRPRPRPQFAPRP, the “shrunken log2 fold change” value is reported as 0.105. With RRIRSRPPRLPRPRPRPQFQPRP the “shrunken log2 fold change” value was -0.124. RRIRSRPPRLPRPRPRPQHTPRP was tested, and the “shrunken log2 fold change” value was -0.424. In the case of RRIRSRPPRLPRPRPRPQISPRP, the “shrunken log2 fold change” value is reported as -0.00331. With RRIRSRPPRLPRPRPRPQKPPRP the “shrunken log2 fold change” value was -0.0986. With RRIRSRPPRLPRPRPRPQLGPRP the “shrunken log2 fold change” value was 0.115. In the case of RRIRSRPPRLPRPRPRPQLKPRP, the “shrunken log2 fold change” value is reported as 0.0348. RRIRSRPPRLPRPRPRPQLSPRP was tested, and the “shrunken log2 fold change” value was -0.106. For RRIRSRPPRLPRPRPRPQNYPRP, the “shrunken log2 fold change” value was -0.322. RRIRSRPPRLPRPRPRPQQSPRP was tested, and the “shrunken log2 fold change” value was -0.235. RRIRSRPPRLPRPRPRPQRMPRP was tested, and the “shrunken log2 fold change” value was -0.133. With RRIRSRPPRLPRPRPRPQSLPRP the “shrunken log2 fold change” value was -0.232. RRIRSRPPRLPRPRPRPQVCPRP was tested, and the “shrunken log2 fold change” value was -0.0852. RRIRSRPPRLPRPRPRPQVTPRP was tested, and the “shrunken log2 fold change” value was -0.196. With RRIRSRPPRLPRPRPRPQYEPRP the “shrunken log2 fold change” value was -0.355. In the case of RRIRSRPPRLPRPRPRPQYHPRP, the “shrunken log2 fold change” value is reported as -0.9. RRIRSRPPRLPRPRPRPQYIPRP was tested, and the “shrunken log2 fold change” value was -0.206. With RRIRSRPPRLPRPRPRPQYQPRP the “shrunken log2 fold change” value was -0.136. RRIRSRPPRLPRPRPRPRCEPRP was tested, and the “shrunken log2 fold change” value was 0.152. For RRIRSRPPRLPRPRPRPRDGPRP, the “shrunken log2 fold change” value was 1.5. In the case of RRIRSRPPRLPRPRPRPRDRPRP, the “shrunken log2 fold change” value is reported as 0.271. For RRIRSRPPRLPRPRPRPRFFPRP, the “shrunken log2 fold change” value was 0.108. RRIRSRPPRLPRPRPRPRFNPRP was tested, and the “shrunken log2 fold change” value was -0.153. With RRIRSRPPRLPRPRPRPRGMPRP the “shrunken log2 fold change” value was 0.164. In the case of RRIRSRPPRLPRPRPRPRGVPRP, the “shrunken log2 fold change” value is reported as 0.749. With RRIRSRPPRLPRPRPRPRHHPRP the “shrunken log2 fold change” value was -0.163. RRIRSRPPRLPRPRPRPRHIPRP was tested, and the “shrunken log2 fold change” value was -0.264. For RRIRSRPPRLPRPRPRPRHQPRP, the “shrunken log2 fold change” value was -0.119. In the case of RRIRSRPPRLPRPRPRPRKTPRP, the “shrunken log2 fold change” value is reported as 0.0973. RRIRSRPPRLPRPRPRPRKWPRP was tested, and the “shrunken log2 fold change” value was 0.139. RRIRSRPPRLPRPRPRPRLLPRP was tested, and the “shrunken log2 fold change” value was 0.229. With RRIRSRPPRLPRPRPRPRLPPRP the “shrunken log2 fold change” value was 0.315. In the case of RRIRSRPPRLPRPRPRPRMCPRP, the “shrunken log2 fold change” value is reported as -0.155. With RRIRSRPPRLPRPRPRPRNWPRP the “shrunken log2 fold change” value was 0.318. RRIRSRPPRLPRPRPRPRPWPRP was tested, and the “shrunken log2 fold change” value was 0.324. RRIRSRPPRLPRPRPRPRQKPRP was tested, and the “shrunken log2 fold change” value was 0.29. With RRIRSRPPRLPRPRPRPRSHPRP the “shrunken log2 fold change” value was -0.203. RRIRSRPPRLPRPRPRPRSTPRP was tested, and the “shrunken log2 fold change” value was 0.0523. For RRIRSRPPRLPRPRPRPRTNPRP, the “shrunken log2 fold change” value was 0.057. For RRIRSRPPRLPRPRPRPRTQPRP, the “shrunken log2 fold change” value was 0.107. With RRIRSRPPRLPRPRPRPRVFPRP the “shrunken log2 fold change” value was 0.151. With RRIRSRPPRLPRPRPRPRVLPRP the “shrunken log2 fold change” value was -0.285. For RRIRSRPPRLPRPRPRPRWLPRP, the “shrunken log2 fold change” value was 0.297. With RRIRSRPPRLPRPRPRPRYDPRP the “shrunken log2 fold change” value was -0.444. For RRIRSRPPRLPRPRPRPRYFPRP, the “shrunken log2 fold change” value was -0.0823. With RRIRSRPPRLPRPRPRPSAWPRP the “shrunken log2 fold change” value was 0.555. With RRIRSRPPRLPRPRPRPSFLPRP the “shrunken log2 fold change” value was 0.182. For RRIRSRPPRLPRPRPRPSFNPRP, the “shrunken log2 fold change” value was -0.644. RRIRSRPPRLPRPRPRPSFRPRP was tested, and the “shrunken log2 fold change” value was -0.357. RRIRSRPPRLPRPRPRPSGEPRP was tested, and the “shrunken log2 fold change” value was 0.406. With RRIRSRPPRLPRPRPRPSGNPRP the “shrunken log2 fold change” value was -0.571. With RRIRSRPPRLPRPRPRPSGTPRP the “shrunken log2 fold change” value was -0.494. RRIRSRPPRLPRPRPRPSHKPRP was tested, and the “shrunken log2 fold change” value was -0.658. With RRIRSRPPRLPRPRPRPSHYPRP the “shrunken log2 fold change” value was -1.44. With RRIRSRPPRLPRPRPRPSIWPRP the “shrunken log2 fold change” value was 0.266. For RRIRSRPPRLPRPRPRPSKVPRP, the “shrunken log2 fold change” value was -0.575. In the case of RRIRSRPPRLPRPRPRPSLFPRP, the “shrunken log2 fold change” value is reported as 0.0853. In the case of RRIRSRPPRLPRPRPRPSLTPRP, the “shrunken log2 fold change” value is reported as -0.138. For RRIRSRPPRLPRPRPRPSMAPRP, the “shrunken log2 fold change” value was 0.223. In the case of RRIRSRPPRLPRPRPRPSMKPRP, the “shrunken log2 fold change” value is reported as -0.59. RRIRSRPPRLPRPRPRPSNCPRP was tested, and the “shrunken log2 fold change” value was -0.525. In the case of RRIRSRPPRLPRPRPRPSNPPRP, the “shrunken log2 fold change” value is reported as -0.257. With RRIRSRPPRLPRPRPRPSPNPRP the “shrunken log2 fold change” value was 0.0503. RRIRSRPPRLPRPRPRPSPYPRP was tested, and the “shrunken log2 fold change” value was -0.672. For RRIRSRPPRLPRPRPRPSSAPRP, the “shrunken log2 fold change” value was -0.0109. RRIRSRPPRLPRPRPRPSSDPRP was tested, and the “shrunken log2 fold change” value was -0.107. RRIRSRPPRLPRPRPRPSTRPRP was tested, and the “shrunken log2 fold change” value was -0.0999. RRIRSRPPRLPRPRPRPSVCPRP was tested, and the “shrunken log2 fold change” value was 0.0526. With RRIRSRPPRLPRPRPRPSVVPRP the “shrunken log2 fold change” value was -0.219. For RRIRSRPPRLPRPRPRPSYQPRP, the “shrunken log2 fold change” value was -0.434. In the case of RRIRSRPPRLPRPRPRPTCVPRP, the “shrunken log2 fold change” value is reported as 0.0671. With RRIRSRPPRLPRPRPRPTCYPRP the “shrunken log2 fold change” value was -0.0144. With RRIRSRPPRLPRPRPRPTDCPRP the “shrunken log2 fold change” value was -0.0926. For RRIRSRPPRLPRPRPRPTDDPRP, the “shrunken log2 fold change” value was -0.0687. RRIRSRPPRLPRPRPRPTDFPRP was tested, and the “shrunken log2 fold change” value was -0.541. In the case of RRIRSRPPRLPRPRPRPTDWPRP, the “shrunken log2 fold change” value is reported as 0.354. In the case of RRIRSRPPRLPRPRPRPTEEPRP, the “shrunken log2 fold change” value is reported as 0.234.
